Test results reported in paper PMC11799418.

Experiments:
Endophilin B1 (human) [1] = target: Endophilin B1 (human) (UniProt Q9Y371); assay: cryo-EM structure; endophilin B1 incubated with MSP2N2 nanodiscs at molar ratio 1:2 (MSP2N2:endophilin B1); cryo-EM data split into 2 classes
Endophilin B1 (human) [2] = target: Endophilin B1 (human) (UniProt Q9Y371); assay: SAXS; in solution, 8 and 16 μM endophilin B1 (0.34 and 0.69 mg/ml); 150 mM NaCl, 20 mM HEPES, 1 mM TCEP, 0.5 mM DTT, pH 8.1, 4 °C; monomer to dimer
Endophilin B1 (human) [3] = target: Endophilin B1 (human) (UniProt Q9Y371); assay: cryo-EM structure; endophilin B1 incubated with His6-MSP2N2 nanodiscs (90% DOPS, 10% 14:0 cardiolipin), molar ratio 1:10 (MSP2N2:endophilin B1), SEC peak vitrified; single-particle reconstruction of membrane-bound endophilin B1 on bicelles, cryoSPARC and cryoDRGN

- stoichiometry N (Endophilin B1 (human) [1]): 2
- stoichiometry N (Endophilin B1 (human) [2]): 2
- dimers bound per bicelle (Endophilin B1 (human) [3]): 6 dimers
Substance: Endophilin B1 (from UniProt Q9Y371 1-365) (natural protein)
